# Patent publication US20160222130A1 (Astellas, published 2016)
# Tests used:
# Human Tie2 (1-452)r2-Fc = target: T1, Human Tie2 (1-452)r2-Fc (human, UniProt Q02763 23-452); assay: SPR (Biacore T200); Tie2-Fc captured on anti-human IgG (Fc), Fab at 50 nM; mean of 3
# T1 construct: range 1-452
# Description: (§1) SPR analysis was carried out in order to evaluate the binding activity of the human Tie2 (1-452)-Fc chimera protein and 23 mutant proteins thereof to the fully human 2-16A2-Fab.
# (§2) For SPR analysis, Biacore T200 (GE Healthcare) was used. An anti-human IgG (Fc) antibody (Human Antibody Capture Kit, GE Healthcare) was fixed onto a CM5 sensor chip. The human Tie2 (1-452)-Fc chimeric protein and 23 mutant proteins thereof, diluted with HBS-EP (GE Healthcare) at 5 μg/mL, were each allowed for immobilization, and the capture-amount was measured. Thereafter, the fully human 2-16A2-Fab diluted with HBS-EP to 50 nM, the binding amount thereof to the human Tie2 (1-452)-Fc chimeric protein and 23 mutant proteins thereof were measured. Further, by dividing the binding amount with the capture-amount, the binding amount of the antibody in the unit immobilized antigen (hereinafter referred to as a binding ratio) was calculated. The arithmetic mean of three experiments and the relative value of the binding ratio of each mutant proteins when the binding ratio of the human Tie2 (1-452)-Fc chimeric protein was taken as 100% are shown in Table 7.
# Human Tie2 (1-452)r6-Fc = target: T2, Human Tie2 (1-452)r6-Fc (human, UniProt Q02763 23-452); assay: as above
# T2 construct: range 1-452
# Description: as §1, §2
# Human Tie2 (1-452)m1-Fc = target: T3, Human Tie2 (1-452)m1-Fc (human, UniProt Q02763 23-452); assay: as above
# T3 construct: range 1-452
# Description: as §1, §2
# Human Tie2 (1-452)c1-Fc = target: T4, Human Tie2 (1-452)c1-Fc (human, UniProt Q02763 23-452); assay: as above
# T4 construct: range 1-452
# Description: as §1, §2
# Human Tie2 (1-452)A5-Fc [1] = target: T5, Human Tie2 (1-452)A5-Fc (human, UniProt Q02763 23-452); assay: as above
# T5 construct: range 1-452
# Description: as §1, §2
# Human Tie2 (1-452)A6-Fc [2] = target: T6, Human Tie2 (1-452)A6-Fc (human, UniProt Q02763 23-452); assay: as above
# T6 construct: range 1-452
# Description: as §1, §2
# Human Tie2 (1-452)A1-Fc = target: T7, Human Tie2 (1-452)A1-Fc (human, UniProt Q02763 23-452); assay: ELISA; Tie2-Fc coated at 1 ug/mL, chemiluminescence
# T7 construct: range 1-452
# Description: (§3) The next day, the immobilized solution was removed, and the plate was washed with a TBS-T solution, and incubated for 60 minutes by the addition of 50 μL of a Blocker™ Casein in TBS (Thermo Fisher Scientific Inc., 37532) to perform blocking. The resultant was washed with a TBS-T solution, and TIE-1-Igγ1-LALA, diluted with 0.05% Tween 20 (Nacalai Tesque Inc., 28353-85)—containing Blocker™ Casein in TBS from 0.03 ng/mL to 100 ng/mL through eight steps, was added thereto in the amount of 20 μL per well. The resultant was incubated at room temperature for 90 minutes and then washed with a TBS-T solution three times, and 20 μL of a biotin-labeled anti-human kappa light chain antibody, which had been diluted to 0.1 μg/mL with 0.05% Tween 20-containing Blocker™ Casein in TBS, was added thereto. The resultant was incubated at room temperature for 60 minutes and then washed with a TBS-T solution three times, and 20 μL of alkaline phosphatase-labeled streptavidin, which had been diluted to 0.1 μg/mL with 0.05% Tween 20-containing Blocker™ Casein in TBS, was added thereto. The resultant was incubated at room temperature for 60 minutes and then washed with a TBS-T solution three times, and 50 μL of Chemiluminescent Ultra Sensitive AP Microwell and/or Membrane Substrate (450 nm), which had been 5-fold diluted with 1 mM MgCl₂-containing 20 mM TBS (pH 9.8) as a substrate, was added thereto. The resultant was incubated at room temperature under light-shielding for 40 minutes, and then luminescent intensity thereof was measured with an EnVision™ multi-label counter. The EC₅₀ value of TIE-1-Igγ1-LALA with respect to the human Tie2 (1-452)-Fc chimeric protein and 23 mutant proteins thereof were calculated. The relative value of luminescent intensity of 100 ng/mL TIE-1-Igγ1-LALA as maximum concentration point with respect to human Tie2 (1-452)-Fc chimeric protein and 23 mutant proteins thereof when the convergence value of the sigmoid curve of TIE-1-Igγ1-LALA binding to the human Tie2 (1-452)-Fc chimeric protein which was taken as 100% was calculated (Table 8 and Table 9). Further, the EC₅₀ value and the convergence value were calculated by Sigmoid-Emax model non-linear regression analysis.
# Human Tie2 (1-452)A2-Fc = target: T8, Human Tie2 (1-452)A2-Fc (human, UniProt Q02763 23-452); assay: as above
# T8 construct: range 1-452
# Description: as §3
# Human Tie2 (1-452)A3-Fc = target: T9, Human Tie2 (1-452)A3-Fc (human, UniProt Q02763 23-452); assay: as above
# T9 construct: range 1-452
# Description: as §3
# Human Tie2 (1-452)A4-Fc = target: T10, Human Tie2 (1-452)A4-Fc (human, UniProt Q02763 23-452); assay: as above
# T10 construct: range 1-452
# Description: as §3
# Human Tie2 (1-452)A5-Fc [3] = target: T5, Human Tie2 (1-452)A5-Fc; assay: as above
# Description: as §3
# Human Tie2 (1-452)A6-Fc [4] = target: T6, Human Tie2 (1-452)A6-Fc; assay: as above
# Description: as §3
# [5] = target: T11, human Tie2 (1-452)-Fc chimeric protein (human, UniProt Q02763 23-452); assay: as above
# T11 construct: range 1-452; The stated range 1-452 begins at residue 1 of the precursor
# Description: as §3
# T6 sequence (Q02763 other isoform, or with tags, fused parts or gaps limits assumed, form in doubt): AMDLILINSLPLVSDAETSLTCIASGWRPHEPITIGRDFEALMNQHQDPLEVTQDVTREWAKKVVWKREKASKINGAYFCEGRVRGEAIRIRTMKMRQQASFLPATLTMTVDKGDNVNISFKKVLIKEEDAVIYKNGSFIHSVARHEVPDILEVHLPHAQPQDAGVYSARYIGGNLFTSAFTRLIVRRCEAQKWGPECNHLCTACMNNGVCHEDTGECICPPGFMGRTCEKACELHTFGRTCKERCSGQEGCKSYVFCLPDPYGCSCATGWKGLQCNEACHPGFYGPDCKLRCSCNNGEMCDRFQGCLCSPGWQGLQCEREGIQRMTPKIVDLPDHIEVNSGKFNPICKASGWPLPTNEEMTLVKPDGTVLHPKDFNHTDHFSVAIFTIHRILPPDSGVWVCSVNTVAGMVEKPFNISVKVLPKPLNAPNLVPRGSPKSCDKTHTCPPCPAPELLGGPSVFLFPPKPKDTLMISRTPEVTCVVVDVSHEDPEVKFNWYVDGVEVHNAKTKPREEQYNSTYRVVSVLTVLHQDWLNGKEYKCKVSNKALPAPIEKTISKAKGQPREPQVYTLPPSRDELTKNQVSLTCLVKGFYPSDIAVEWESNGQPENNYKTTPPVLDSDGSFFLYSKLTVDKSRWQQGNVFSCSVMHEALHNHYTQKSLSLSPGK
# T5 sequence (Q02763 other isoform, or with tags, fused parts or gaps limits assumed, form in doubt): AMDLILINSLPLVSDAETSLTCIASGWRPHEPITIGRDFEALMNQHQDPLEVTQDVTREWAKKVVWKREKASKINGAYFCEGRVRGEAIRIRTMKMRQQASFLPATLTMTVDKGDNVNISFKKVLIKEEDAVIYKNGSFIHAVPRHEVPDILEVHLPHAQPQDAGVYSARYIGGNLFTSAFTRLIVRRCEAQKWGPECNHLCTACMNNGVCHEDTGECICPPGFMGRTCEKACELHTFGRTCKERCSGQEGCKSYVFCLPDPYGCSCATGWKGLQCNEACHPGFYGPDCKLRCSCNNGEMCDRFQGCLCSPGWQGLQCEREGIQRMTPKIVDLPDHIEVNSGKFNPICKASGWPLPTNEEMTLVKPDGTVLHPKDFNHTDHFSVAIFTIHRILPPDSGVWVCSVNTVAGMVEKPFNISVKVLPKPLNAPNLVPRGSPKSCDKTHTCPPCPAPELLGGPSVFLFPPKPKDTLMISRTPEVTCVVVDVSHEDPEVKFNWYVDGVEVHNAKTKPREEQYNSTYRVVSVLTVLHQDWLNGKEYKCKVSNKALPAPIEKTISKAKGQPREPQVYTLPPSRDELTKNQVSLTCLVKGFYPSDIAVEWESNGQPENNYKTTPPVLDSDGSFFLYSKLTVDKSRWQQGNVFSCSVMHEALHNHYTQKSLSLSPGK
# T1 sequence (Q02763 other isoform, or with tags, fused parts or gaps limits assumed, form in doubt): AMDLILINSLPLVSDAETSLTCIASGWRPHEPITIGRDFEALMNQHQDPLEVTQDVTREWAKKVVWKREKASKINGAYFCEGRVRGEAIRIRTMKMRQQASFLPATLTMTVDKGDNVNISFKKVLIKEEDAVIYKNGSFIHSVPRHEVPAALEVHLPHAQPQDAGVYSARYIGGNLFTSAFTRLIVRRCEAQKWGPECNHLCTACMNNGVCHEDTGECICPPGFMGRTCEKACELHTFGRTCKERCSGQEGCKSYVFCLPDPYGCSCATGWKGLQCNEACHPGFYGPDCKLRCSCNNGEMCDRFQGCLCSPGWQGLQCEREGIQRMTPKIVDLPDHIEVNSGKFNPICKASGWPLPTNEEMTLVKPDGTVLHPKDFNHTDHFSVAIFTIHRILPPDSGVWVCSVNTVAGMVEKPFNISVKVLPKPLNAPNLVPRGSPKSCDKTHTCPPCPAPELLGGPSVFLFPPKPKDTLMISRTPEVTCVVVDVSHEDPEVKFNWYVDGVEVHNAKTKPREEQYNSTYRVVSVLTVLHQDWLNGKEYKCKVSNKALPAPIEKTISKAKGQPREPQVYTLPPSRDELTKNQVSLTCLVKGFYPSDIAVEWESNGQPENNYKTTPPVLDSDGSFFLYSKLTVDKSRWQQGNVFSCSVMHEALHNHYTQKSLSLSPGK
# T2 sequence (Q02763 other isoform, or with tags, fused parts or gaps limits assumed, form in doubt): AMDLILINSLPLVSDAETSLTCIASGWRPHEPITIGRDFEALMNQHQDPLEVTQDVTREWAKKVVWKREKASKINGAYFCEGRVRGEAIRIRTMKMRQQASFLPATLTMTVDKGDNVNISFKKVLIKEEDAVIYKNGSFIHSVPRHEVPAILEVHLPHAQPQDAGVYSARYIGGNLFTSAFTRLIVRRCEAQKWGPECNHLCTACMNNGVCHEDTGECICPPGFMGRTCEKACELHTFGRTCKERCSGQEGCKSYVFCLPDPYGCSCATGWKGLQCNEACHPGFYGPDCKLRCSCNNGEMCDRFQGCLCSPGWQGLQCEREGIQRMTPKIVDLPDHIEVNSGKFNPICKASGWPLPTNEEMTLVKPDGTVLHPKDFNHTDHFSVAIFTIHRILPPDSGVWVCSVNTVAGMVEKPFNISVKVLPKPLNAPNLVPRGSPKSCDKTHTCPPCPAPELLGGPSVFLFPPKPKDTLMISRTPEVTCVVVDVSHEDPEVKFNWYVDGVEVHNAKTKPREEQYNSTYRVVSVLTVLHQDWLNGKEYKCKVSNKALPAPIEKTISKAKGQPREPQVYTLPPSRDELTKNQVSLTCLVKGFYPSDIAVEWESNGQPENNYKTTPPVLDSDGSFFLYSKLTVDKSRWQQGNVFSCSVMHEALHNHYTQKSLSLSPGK
# T3 sequence (Q02763 other isoform, or with tags, fused parts or gaps limits assumed, form in doubt): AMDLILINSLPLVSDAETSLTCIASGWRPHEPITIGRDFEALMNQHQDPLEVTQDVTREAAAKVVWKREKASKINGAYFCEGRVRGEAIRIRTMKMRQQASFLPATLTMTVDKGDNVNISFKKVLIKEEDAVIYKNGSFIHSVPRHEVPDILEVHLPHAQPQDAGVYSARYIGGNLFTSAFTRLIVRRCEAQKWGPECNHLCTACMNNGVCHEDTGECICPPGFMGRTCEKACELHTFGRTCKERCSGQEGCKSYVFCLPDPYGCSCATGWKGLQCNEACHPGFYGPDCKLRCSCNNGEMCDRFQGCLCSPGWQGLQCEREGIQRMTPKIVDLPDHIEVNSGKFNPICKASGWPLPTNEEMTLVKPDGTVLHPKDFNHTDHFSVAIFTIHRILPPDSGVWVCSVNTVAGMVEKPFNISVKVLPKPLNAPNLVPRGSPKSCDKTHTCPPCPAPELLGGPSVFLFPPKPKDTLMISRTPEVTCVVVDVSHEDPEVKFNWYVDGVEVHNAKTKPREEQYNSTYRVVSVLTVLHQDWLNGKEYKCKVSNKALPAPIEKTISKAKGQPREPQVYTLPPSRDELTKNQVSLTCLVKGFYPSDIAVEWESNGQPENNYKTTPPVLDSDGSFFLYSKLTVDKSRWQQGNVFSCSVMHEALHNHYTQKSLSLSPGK
# T4 sequence (Q02763 other isoform, or with tags, fused parts or gaps limits assumed, form in doubt): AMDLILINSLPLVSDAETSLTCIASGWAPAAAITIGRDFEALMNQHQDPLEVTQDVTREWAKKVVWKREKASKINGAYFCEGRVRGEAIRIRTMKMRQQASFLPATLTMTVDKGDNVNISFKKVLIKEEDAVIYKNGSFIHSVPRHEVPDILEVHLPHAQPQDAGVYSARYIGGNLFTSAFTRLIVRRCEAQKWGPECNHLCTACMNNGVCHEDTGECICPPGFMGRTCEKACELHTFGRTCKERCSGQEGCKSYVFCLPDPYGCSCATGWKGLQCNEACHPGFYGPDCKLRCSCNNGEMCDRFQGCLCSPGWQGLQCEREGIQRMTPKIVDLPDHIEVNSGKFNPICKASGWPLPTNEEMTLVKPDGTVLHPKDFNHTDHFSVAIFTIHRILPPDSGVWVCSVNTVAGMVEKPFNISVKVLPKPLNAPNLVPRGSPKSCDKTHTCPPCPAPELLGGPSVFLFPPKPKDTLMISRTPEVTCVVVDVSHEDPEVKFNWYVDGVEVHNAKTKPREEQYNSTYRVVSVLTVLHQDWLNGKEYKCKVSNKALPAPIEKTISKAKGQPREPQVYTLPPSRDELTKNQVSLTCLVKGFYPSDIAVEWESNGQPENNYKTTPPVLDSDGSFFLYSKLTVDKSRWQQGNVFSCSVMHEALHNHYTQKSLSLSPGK
# T11 sequence (Q02763 other isoform, or with tags, fused parts or gaps mutant limits assumed, form in doubt): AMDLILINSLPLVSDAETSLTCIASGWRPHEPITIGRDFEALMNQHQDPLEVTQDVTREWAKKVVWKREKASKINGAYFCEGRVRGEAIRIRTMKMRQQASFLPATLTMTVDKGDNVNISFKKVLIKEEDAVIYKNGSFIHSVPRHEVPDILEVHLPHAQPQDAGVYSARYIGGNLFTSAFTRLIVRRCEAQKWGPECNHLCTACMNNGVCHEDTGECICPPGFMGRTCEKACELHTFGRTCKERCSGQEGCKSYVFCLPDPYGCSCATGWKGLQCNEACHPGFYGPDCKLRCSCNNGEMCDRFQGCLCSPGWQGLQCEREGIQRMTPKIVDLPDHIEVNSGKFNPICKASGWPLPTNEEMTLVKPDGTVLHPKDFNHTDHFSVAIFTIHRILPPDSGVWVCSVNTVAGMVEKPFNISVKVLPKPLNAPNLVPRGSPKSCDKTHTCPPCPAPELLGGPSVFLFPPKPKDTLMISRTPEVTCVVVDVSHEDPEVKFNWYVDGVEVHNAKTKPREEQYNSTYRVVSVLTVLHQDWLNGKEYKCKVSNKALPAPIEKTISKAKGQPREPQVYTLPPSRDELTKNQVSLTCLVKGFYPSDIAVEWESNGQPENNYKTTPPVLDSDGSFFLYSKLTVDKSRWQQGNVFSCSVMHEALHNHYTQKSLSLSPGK
Binding ratio (Human Tie2 (1-452)r2-Fc),Relative value (%) of binding ratio (human Tie2 (1-452)-Fc chimeric protein = 100%) (Human Tie2 (1-452)r2-Fc),Binding ratio (Human Tie2 (1-452)r6-Fc),Relative value (%) of binding ratio (human Tie2 (1-452)-Fc chimeric protein = 100%) (Human Tie2 (1-452)r6-Fc),Binding ratio (Human Tie2 (1-452)m1-Fc),Relative value (%) of binding ratio (human Tie2 (1-452)-Fc chimeric protein = 100%) (Human Tie2 (1-452)m1-Fc),Binding ratio (Human Tie2 (1-452)c1-Fc),Relative value (%) of binding ratio (human Tie2 (1-452)-Fc chimeric protein = 100%) (Human Tie2 (1-452)c1-Fc),Binding ratio (Human Tie2 (1-452)A5-Fc [1]),Relative value (%) of binding ratio (human Tie2 (1-452)-Fc chimeric protein = 100%) (Human Tie2 (1-452)A5-Fc [1]),Binding ratio (Human Tie2 (1-452)A6-Fc [2]),Relative value (%) of binding ratio (human Tie2 (1-452)-Fc chimeric protein = 100%) (Human Tie2 (1-452)A6-Fc [2]),EC50 (Human Tie2 (1-452)A1-Fc),EC50 (Human Tie2 (1-452)A2-Fc),EC50 (Human Tie2 (1-452)A3-Fc),EC50 (Human Tie2 (1-452)A4-Fc),EC50 (Human Tie2 (1-452)A5-Fc [3]),EC50 (Human Tie2 (1-452)A6-Fc [4]),EC50 [5],Binder
0.28,98%,0.29,100%,0.31,107%,0.54,189%,0.39,135%,0.31,109%,,,,,,,,"fully human 2-16A2-Fab (Fab, V domains shown, also called Fab of the fully human 2-16A2) VH: EVQLVESGGGLVQPGGSLRLSCAASGFTFDDYAMHWVRQAPGKGLEWVAGISWNSGSIVYADSVKGRFTISRDNSKNTLYLQMNSLRAEDTAVYYCAKDIREQLVEDAFDIWGQGTLVTVSS VL: DIQMTQSPSSLSASVGDRVTITCRSSQSLLHSHRYNYLDWYQQKPGKAPKLLIYLGSNRASGVPSRFSGSGSGTDFTLTISSVQPEDFATYYCMQTLQTPLTFGQGTKVEIKR"
,,,,,,,,,,,,1.3 ng/mL,1.3 ng/mL,1 ng/mL,1 ng/mL,0.9 ng/mL,1.1 ng/mL,1 ng/mL,"TIE-1-Igγ1-LALA (antibody, human IgG1, kappa, L234A L235A, Tandem tetravalent format: two heavy chains (VH-CH1-linker-VH-CH1-CH2-CH3) and four light chains; also called tetravalent anti-human Tie2 antibody with L234A, L235A and P331S) heavy: not shown light: DIQMTQSPSSLSASVGDRVTITCRSSQSLLHSHRYNYLDWYQQKPGKAPKLLIYLGSNRASGVPSRFSGSGSGTDFTLTISSVQPEDFATYYCMQTLQTPLTFGQGTKVEIKRTVAAPSVFIFPPSDEQLKSGTASVVCLLNNFYPREAKVQWKVDNALQSGNSQESVTEQDSKDSTYSLSSTLTLSKADYEKHKVYACEVTHQGLSSPVTKSFNRGEC"
